# B1: 18G4 scFv (scFv)
# scFv: EVQLVQSGAEVKKPGSSVKVSCKASGGTFNIYSVSWVRQAPGQGLEWMGRIIPMRDIANYAQRFQGRVTLTADKSSGTAYMELRSLRSDDTAVYWCATLAGPLDSWGRGTLVTVSSGGGGSGGGGSGGGGSALSSELTQDPAVSVALGQTVRITCQGDSLRTYYASWYQKRPGQAPILVMYGRNKRPSGIPDRFSGSFSGNRASLTITGAQAEDEADYYCKSRAYSGNLVEFGGGTKLTVLG
# B2: MUF antibody (human IgG1 lambda) (antibody, V domains shown)
# VH: QVQLVQSGAEVKKPGSSVRVSCKASGGTFNIYSVSWVRQAPGQGLEWMGRIIPMRDIANYAQRFQGRVTLTADKSSGTAYMELRGLRSDDTAVYWCATLAGPLDSWGQGTLVTVSS
# VL: SSELTQDPAVSVGLGQTVTITCQGGSLRQYYASWYQQKPGQAPVVVIYGKNKRPSGIPDRFSGTTSGNTASLTITGAQAEDEADYYCKSRDSSGNHPLYVFGAGTKLTVLG
# notes: also called MUF IgG; MuF IgG protein
# B3: 18A5 scFv (scFv)
# scFv: QVQLQESGPGLVKTSETLSLTCAVSGYSISSGYYWGWIRQPPGKGLEWIGSISHTGNTYYNPPLKSRVTISVDTSKNQFSLKLSSVTAADTAVYYCARGGGISRPEYWGKGTLVTVSSGGGGSGGGGSGGGGSALSSELTQDPPVSVALGQTVTLTCQGDSLRTYYASWYQQKSGQAPILLLYGKHKRPSGIPDRFSGSTSGDTASLTITGAQAEDEADYYCNSRDSSGNPHVLFGGGTQLTVLS
# B4: R18 scFv (scFv)
# scFv: QVQLQESGGGLVQPGGSLRLSCAASGFTFSSYAMSWVRQAPGKGLEWVSGISGSGTSTYYADSVKGRFTISRDNSKNTLYLQMNSLRAEDTAVYYCATHISERPRGAFDIWGRGTMVTVSSGGGGSGGGGSGGGGSALSSELTQDPAVSVALGQTVRITCQGDSLRKYHATWYQQKPRQAPVLVVYGKNRRPSGIPDRFSGSSSGNTASLTITGAQAGDEADYYCNSRDTSGLHYVFGAGTKLTVLG
# notes: also called hIL21R18; scFv R18 clone
# B5: MUF scFv (scFv)
# scFv: QVQLVQSGAEVKKPGSSVRVSCKASGGTFNIYSVSWVRQAPGQGLEWMGRIIPMRDIANYAQRFQGRVTLTADKSSGTAYMELRGLRSDDTAVYWCATLAGPLDSWGQGTLVTVSSGGGGSGGGGSGGGGSALSSELTQDPAVSVGLGQTVTITCQGGSLRQYYASWYQQKPGQAPVVVIYGKNKRPSGIPDRFSGTTSGNTASLTITGAQAEDEADYYCKSRDSSGNHPLYVFGAGTKLTVLGAAAHHHHHH
# B6: MU11 phage clone (scFv)
# scFv: EVQLVQSGGGVVQPGRSLRLSCAASGFTFSSYGMHWVRQAPGKGLEWVAVISYDGSNKYYADSVKGRFTISRDNSKNTLYLQMNSLRDEDTAVYYCARHGQYALDIWGQGTMVTVSSGGGGSGGGGSGGGGSDIVMTQSPSTLSASVGDRVTITCRASQGISSWLAWYQQKPGRAPKVLIYKASTLESGVPSRFSGSGSGTDFTLTISSLQPEDFATYYCQQSYSTPWTFGQGTKLEIKRAA
# B7: 19F5 scFv (scFv)
# scFv: EVQLVQSGAEVKKPGASVKVSCKASGYAFTDNYIHWVRQAPGQGLEWMGWINPKTGGTNYAQKFQGRVSMTRDTSINTAYMDLSRLTSDDTAVYYCTRSLSPYGGQLLYWGRGTMVTVSSGGGGSGGGGSGGGGSALSSELTQDPAVSVALGQTVRITCQGDSLRRYYASWFQQKPGQAPVLVIFGKNNRPSGIPDRFSASSSGNTASLTITGAQAEDEADYYCNSRDTSINHPVIFGGGTKLTVLG
# Columns and labels:
# [1] = target: T1, human IL-21R fusion protein (human, UniProt Q9HBE5 20-235, biotinylated in the assay of Example 11 (site not stated)); assay: epitope competition assay: bio.hIL21R binding to immobilized MUF IgG (competitor), DELFIA
# T1 construct: Soluble fusion protein (Wyeth); The extracellular domain is said to be about residues 20-235; also called soluble IL-21R fusion protein; biotinylated human IL-21R fusion protein
# T1 sequence (Q9HBE5 20-235): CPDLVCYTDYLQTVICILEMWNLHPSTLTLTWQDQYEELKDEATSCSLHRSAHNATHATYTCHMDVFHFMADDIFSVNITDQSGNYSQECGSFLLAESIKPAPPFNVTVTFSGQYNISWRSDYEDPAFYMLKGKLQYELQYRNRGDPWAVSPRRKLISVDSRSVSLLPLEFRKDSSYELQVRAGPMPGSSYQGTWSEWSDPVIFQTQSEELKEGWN
# Experimental: The scFv clones 18A5, 19F5 and 18G4 were further tested in an epitope competition assay in order to determine whether they bound the same or a different epitope than MUF. ScFv-containing periplasmic extracts were prepared as described above for the various clones. Final buffer used was 50 mM MOPS, pH 7.4, 0.5 mM EDTA, 0.5 M sorbitol. The scFv-containing crude periplasmic extracts were screened for the ability to inhibit the binding of biotinlyated human IL-21R fusion protein (bio.hIL21R) to MuF IgG protein immobilized on plastic in a 96 well microtitre plate assay. Binding of bio.hIL21R was detected with Europium-labelled streptavidin and TRF detected using the DELFIA reagent kit (PerkinElmer). Positive clones were used in an epiope competition assay described herein.
# [2] = target: T2, human IL-21R expressed on cells (human, UniProt Q9HBE5 20-538); assay: cell-based or functional assay
# T2 sequence (Q9HBE5 20-538): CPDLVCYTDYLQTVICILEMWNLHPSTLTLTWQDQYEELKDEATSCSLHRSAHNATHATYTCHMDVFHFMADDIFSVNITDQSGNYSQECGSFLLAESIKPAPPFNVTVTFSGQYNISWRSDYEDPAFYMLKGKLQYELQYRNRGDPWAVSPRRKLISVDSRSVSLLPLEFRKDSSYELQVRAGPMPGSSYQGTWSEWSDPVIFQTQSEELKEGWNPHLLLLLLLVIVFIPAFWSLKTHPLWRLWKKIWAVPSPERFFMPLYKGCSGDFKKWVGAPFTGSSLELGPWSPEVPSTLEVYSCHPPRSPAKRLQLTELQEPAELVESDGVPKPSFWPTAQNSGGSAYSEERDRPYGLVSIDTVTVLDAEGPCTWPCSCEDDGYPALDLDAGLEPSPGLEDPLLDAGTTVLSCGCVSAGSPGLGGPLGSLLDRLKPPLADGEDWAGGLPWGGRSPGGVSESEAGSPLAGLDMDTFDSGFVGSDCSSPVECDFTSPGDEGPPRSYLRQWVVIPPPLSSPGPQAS
# [3] = target: T2, human IL-21R expressed on cells; assay: cell-based or functional assay; remark: listed apart in the source
# [4] = target: T1, human IL-21R fusion protein; assay: DELFIA competition: inhibition of human IL-21R fusion protein binding to captured IL-21-FLAG
# Experimental: ScFv production was induced by addition of 1 mM IPTG to exponentially growing cultures and incubation overnight at 30° C. Crude scFv-containing periplasmic extracts (Griffiths et al.(1993) EMBO J., 12:725-734) were screened for the ability to inhibit the binding of human IL-21R fusion protein to human IL-21-FLAG tagged protein. Briefly, anti-FLAG antibody was immobilized onto plastic and used to capture FLAG-tagged human IL-21 protein. Binding of human IL-21R fusion protein was detected with a Europium-labelled antibody to the IL-21R fusion protein, and time resolved fluorescence was detected with the DELFIA reagent kit (PerkinElmer, Boston, Mass.).
# [5] = target: T1, human IL-21R fusion protein; assay: phage ELISA on coated IL-21R fusion protein
# Experimental: To establish the specificity of the scFᵥ's for IL-21R, a phage ELISA was performed against the IL-21R fusion protein. Individual TG1 cell colonies from the second selection were transferred to microtiter wells containing 100 μl of -2TYAG medium. M13K07 helper phage ([…]) was added to the exponentially growing TG1 culture, and the samples were incubated for one hour at 37° C. Plates were centrifuged and supernatant was removed, then the remaining pellets were suspended in 100 μl of 2TYAG and incubated overnight at 30° C. with shaking. The next day, plates were centrifuged and phage supernatant was transferred to new microtiter plate wells. Phage was blocked in MPBS prior to ELISA.
# Wells of microtiter plates were coated with IL-21R fusion protein or control fusion protein (0.5-2.5 μg/ml) and incubated overnight at 4° C. The next day, fusion protein solution was removed and wells were blocked for 1 hour in MPBS. Wells were washed with PBS, then 50 μl of blocked phage was added. Plates were incubated for 1 hour, then washed 3 times with PBST and 3 times with PBS. Anti-M13-HRP conjugate (Pharmacia, Peapack, N.J.) was added to wells, and the samples were incubated for one hour. Wells were washed 3 times with PBST and 3 times with PBS. […] The color signal was measured by reading absorbance at 450 nm using a microtiter plate reader.
Binder,IC50 [1] [µM],"IC50 Value (nM) ScFv, hBaf3Mu-1 cell proliferation assay [2] [nM]",further results
B1,0.0014,522,
B2,0.0004,,"IC50, inhibition of cell response to IL-21 (hBaf3Mu-1 proliferation) [3]: 0.003 µM"
B3,0.114,213,
B4,,473,IC50 [4]: 0.77 µM
B5,,140,"IC50, inhibition of cell response to IL-21 (hBaf3Mu-1 proliferation) [3]: 0.268 µM"
B6,,,binding result [5]: binds
B7,,91,

# From patent US20040265960A1 (Pfizer, published 2004)
